Laboratory results: paper PMC5201024

Target: MST3/4 (endogenous MST3 and MST4, m10/m11)
Experiment: co-immunoprecipitation (anti-Myc IP, immunoblot quantification)
Conditions: HeLa cells co-transfected with Myc-RHOA-Q63L and GFP-FAM65A full-length; n=3 independent experiments; read off a plot

RHOA wild type (P61586) Q63L
response (IP/Input ratio (arbitrary units)): 4.6
